In the test the target is M2G peptide conjugated with BSA (influenza A virus, A/Puerto Rico/8/34 (H1N1)). Kind of test: peptide-BSA ELISA (++ EC50<10^-9M; + 10^-9M<EC50<10^-8M). Background: An ELISA detects its analyte on a solid surface through an enzyme-linked reagent.

One substance from patent US20090162366A1 can be followed below.

What is called EC50 is the concentration giving half of the maximal effect. As for mouse anti-M2 antibody 14C2, the EC50 was < 1 nM.
